Consider 3 molecules from paper PMC8864165 (2022).

Square brackets hold non-standard residues; d marks the D form. Ends that are not written are not given here. Ac6c = NC1(C(=O)O)CCCCC1

For assay [1], the target named is E. coli DnaK (Escherichia coli, UniProt P0A6Y8 1-638). Briefly: FP.
The target of assay [2] is S. aureus DnaK (Staphylococcus aureus, UniProt P99110 1-610). The experiment in a line: FP.

B1: peptide #2 (peptide)
chain: [Ac6c]RPKKPRPYLPRPRPPRPVR-NH2
modifications: N-terminus assumed
SMILES: CC(C)C[C@H](NC(=O)[C@H](Cc1ccc(O)cc1)NC(=O)[C@@H]1CCCN1C(=O)[C@H](CCCNC(=N)N)NC(=O)[C@@H]1CCCN1C(=O)[C@H](CCCCN)NC(=O)[C@H](CCCCN)NC(=O)[C@@H]1CCCN1C(=O)[C@H](CCCNC(=N)N)NC(=O)C1(N)CCCCC1)C(=O)N1CCC[C@H]1C(=O)N[C@@H](CCCNC(=N)N)C(=O)N1CCC[C@H]1C(=O)N[C@@H](CCCNC(=N)N)C(=O)N1CCC[C@H]1C(=O)N1CCC[C@H]1C(=O)N[C@@H](CCCNC(=N)N)C(=O)N1CCC[C@H]1C(=O)N[C@H](C(=O)N[C@@H](CCCNC(=N)N)C(N)=O)C(C)C
As usually defined, the Ki is the equilibrium dissociation constant of an inhibitor or competing ligand from its target. Higher therefore signals lower affinity. For B1, in assay [1], the Ki was 600 nM. This counts as sub-micromolar.

B2: peptide 102 (peptide)
peptide: [Ac6c]RPFFPRPYLPLPRPPRPVR-NH2
modifications: N-terminus assumed
SMILES: CC(C)C[C@H](NC(=O)[C@H](Cc1ccc(O)cc1)NC(=O)[C@@H]1CCCN1C(=O)[C@H](CCCNC(=N)N)NC(=O)[C@@H]1CCCN1C(=O)[C@H](Cc1ccccc1)NC(=O)[C@H](Cc1ccccc1)NC(=O)[C@@H]1CCCN1C(=O)[C@H](CCCNC(=N)N)NC(=O)C1(N)CCCCC1)C(=O)N1CCC[C@H]1C(=O)N[C@@H](CC(C)C)C(=O)N1CCC[C@H]1C(=O)N[C@@H](CCCNC(=N)N)C(=O)N1CCC[C@H]1C(=O)N1CCC[C@H]1C(=O)N[C@@H](CCCNC(=N)N)C(=O)N1CCC[C@H]1C(=O)N[C@H](C(=O)N[C@@H](CCCNC(=N)N)C(N)=O)C(C)C
With B2, the Ki came to 4200 nM in assay [2] and 310 nM in assay [1].

B3: ARV-1502 (peptide)
peptide: [Ac6c]RPDKPRPYLPRPRPPRPVR-NH2
modifications: N-terminus assumed
SMILES: CC(C)C[C@H](NC(=O)[C@H](Cc1ccc(O)cc1)NC(=O)[C@@H]1CCCN1C(=O)[C@H](CCCNC(=N)N)NC(=O)[C@@H]1CCCN1C(=O)[C@H](CCCCN)NC(=O)[C@H](CC(=O)O)NC(=O)[C@@H]1CCCN1C(=O)[C@H](CCCNC(=N)N)NC(=O)C1(N)CCCCC1)C(=O)N1CCC[C@H]1C(=O)N[C@@H](CCCNC(=N)N)C(=O)N1CCC[C@H]1C(=O)N[C@@H](CCCNC(=N)N)C(=O)N1CCC[C@H]1C(=O)N1CCC[C@H]1C(=O)N[C@@H](CCCNC(=N)N)C(=O)N1CCC[C@H]1C(=O)N[C@H](C(=O)N[C@@H](CCCNC(=N)N)C(N)=O)C(C)C
Consider B3, for which the Ki in assay [2] stood at 13700 nM; in assay [1], 400 nM.
